Data on three molecules can be found in paper PMC3030355.

Read-outs that look alike come from different tables or passages of the source.

What all share (test): EMSA
A general note: A gel shift assay detects complexes by their altered migration in electrophoresis.

The target in series [1] is T1, RPA-wt (RPA70/RPA32/RPA14 heterotrimer) (human, UniProt P27694;P15927;P35244 1-616;1-270;1-121).
The target of series [2] is T1, RPA-wt (RPA70/RPA32/RPA14 heterotrimer). This is another data set of the same source.
Series [3] has as its target T2, WRN-E84A (exonuclease-deficient) (human, UniProt Q14191 1-1432, E84A).
In series [4] the target is T2, WRN-E84A (exonuclease-deficient). The source holds these as a separate data set.
Series [5] concerns the target T1, RPA-wt (RPA70/RPA32/RPA14 heterotrimer). The source holds these as a separate data set.

T1 sequence (P27694 whole entry, chain 1 of 3): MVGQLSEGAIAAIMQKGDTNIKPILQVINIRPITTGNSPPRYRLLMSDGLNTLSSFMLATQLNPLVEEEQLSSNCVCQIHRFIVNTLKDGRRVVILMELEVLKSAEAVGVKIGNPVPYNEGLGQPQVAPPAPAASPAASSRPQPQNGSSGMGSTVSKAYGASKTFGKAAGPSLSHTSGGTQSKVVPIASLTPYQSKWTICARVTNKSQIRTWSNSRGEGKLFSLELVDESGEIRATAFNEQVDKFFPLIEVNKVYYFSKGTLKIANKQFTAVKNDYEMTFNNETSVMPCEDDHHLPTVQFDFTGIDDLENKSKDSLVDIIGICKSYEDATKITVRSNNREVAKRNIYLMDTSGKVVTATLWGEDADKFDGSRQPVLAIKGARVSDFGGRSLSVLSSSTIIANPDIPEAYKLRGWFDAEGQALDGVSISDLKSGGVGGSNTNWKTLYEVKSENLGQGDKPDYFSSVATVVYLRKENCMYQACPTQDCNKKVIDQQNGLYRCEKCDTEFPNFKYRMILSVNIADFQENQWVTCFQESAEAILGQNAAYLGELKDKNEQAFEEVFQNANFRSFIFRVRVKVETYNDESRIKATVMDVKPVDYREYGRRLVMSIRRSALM
T1 sequence (P15927 whole entry, chain 2 of 3): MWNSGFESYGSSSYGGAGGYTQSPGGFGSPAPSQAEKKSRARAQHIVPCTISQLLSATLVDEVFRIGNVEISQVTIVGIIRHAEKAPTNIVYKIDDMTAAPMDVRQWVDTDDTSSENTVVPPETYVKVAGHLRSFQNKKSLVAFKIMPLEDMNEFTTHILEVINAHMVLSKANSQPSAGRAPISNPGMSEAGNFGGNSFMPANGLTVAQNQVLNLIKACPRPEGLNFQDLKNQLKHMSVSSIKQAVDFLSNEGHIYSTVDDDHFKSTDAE
T1 sequence (P35244 whole entry, chain 3 of 3): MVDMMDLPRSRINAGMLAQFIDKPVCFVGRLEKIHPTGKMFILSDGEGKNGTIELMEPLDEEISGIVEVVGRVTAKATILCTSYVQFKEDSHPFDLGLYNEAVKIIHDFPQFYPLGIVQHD
T2 sequence (Q14191 whole entry E84A): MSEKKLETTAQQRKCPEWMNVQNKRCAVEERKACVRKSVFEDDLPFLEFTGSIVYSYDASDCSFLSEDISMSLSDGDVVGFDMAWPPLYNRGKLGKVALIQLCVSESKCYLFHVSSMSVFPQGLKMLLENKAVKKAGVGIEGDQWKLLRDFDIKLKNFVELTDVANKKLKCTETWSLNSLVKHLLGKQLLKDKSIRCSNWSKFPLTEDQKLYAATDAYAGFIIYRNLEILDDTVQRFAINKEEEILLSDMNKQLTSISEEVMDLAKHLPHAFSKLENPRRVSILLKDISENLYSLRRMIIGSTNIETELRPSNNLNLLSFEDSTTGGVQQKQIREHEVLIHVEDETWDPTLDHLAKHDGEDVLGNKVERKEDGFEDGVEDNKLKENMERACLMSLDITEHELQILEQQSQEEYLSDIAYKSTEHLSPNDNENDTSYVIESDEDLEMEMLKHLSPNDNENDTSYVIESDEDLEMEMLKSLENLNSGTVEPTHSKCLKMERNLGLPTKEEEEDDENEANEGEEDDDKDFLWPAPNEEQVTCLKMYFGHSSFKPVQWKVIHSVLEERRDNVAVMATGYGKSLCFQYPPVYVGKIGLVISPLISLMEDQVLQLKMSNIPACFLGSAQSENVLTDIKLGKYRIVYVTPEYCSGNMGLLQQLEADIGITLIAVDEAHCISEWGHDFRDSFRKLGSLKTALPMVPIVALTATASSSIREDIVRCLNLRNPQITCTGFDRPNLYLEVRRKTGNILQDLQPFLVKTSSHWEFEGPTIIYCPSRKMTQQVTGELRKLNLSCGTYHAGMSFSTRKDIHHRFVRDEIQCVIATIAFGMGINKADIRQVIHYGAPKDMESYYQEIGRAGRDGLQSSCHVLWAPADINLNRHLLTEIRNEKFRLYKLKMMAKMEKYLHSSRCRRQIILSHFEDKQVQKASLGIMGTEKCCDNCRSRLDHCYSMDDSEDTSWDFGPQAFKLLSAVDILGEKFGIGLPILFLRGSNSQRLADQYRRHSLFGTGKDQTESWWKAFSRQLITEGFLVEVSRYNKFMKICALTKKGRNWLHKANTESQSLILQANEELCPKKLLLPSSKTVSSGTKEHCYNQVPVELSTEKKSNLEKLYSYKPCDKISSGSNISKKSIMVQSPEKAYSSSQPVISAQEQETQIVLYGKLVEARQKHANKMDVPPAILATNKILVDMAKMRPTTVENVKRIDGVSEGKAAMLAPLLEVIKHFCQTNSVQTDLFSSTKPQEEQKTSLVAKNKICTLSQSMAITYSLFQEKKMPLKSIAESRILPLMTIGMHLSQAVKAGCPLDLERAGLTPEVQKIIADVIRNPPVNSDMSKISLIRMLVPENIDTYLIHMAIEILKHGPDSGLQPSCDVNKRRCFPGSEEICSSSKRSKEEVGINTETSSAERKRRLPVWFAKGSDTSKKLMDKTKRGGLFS

B1: ss32 (ssDNA)
DNA: TAAGTGAGTGTGAGGATACATGTAGGCAATTG
Turning to B1, in series [1], the binding result is reported as “binds”.

B2: model replication fork, 32-nt leading gap (mixed)
DNA 1: CGTGACTTGATGTTAACCCTAACCCTAAGATATCGCGTTAAGTGAGTGTGAGGATACATGTAGGCAATTGCCACGTGTCTATCAGCTGAAGTTGTTCGCGACGTGCGATCGTCGCTGCGACG
DNA 2: CGTCGCAGCGACGATCGCACGTCGCGAACAACTTCAGCTGATAGACACGTGGCAATTGCCTACATGTATCCTCACACTCTGAATACGCGATATCTTAGGGTTAGGGTTAACATCAAGTCACG
DNA 3: CGTCGCAGCGACGATCGCACGTCGCGAACAACTTCAGCTGATAGACACGTGG
DNA 4: TCAGAGTGTGAGGATACATGTAGGCAATTGCCACGTGTCTATCAGCTGAAGTTGTTCGCGACGTGCGATCGTCGCTGCGACG
Take B2: the binding result in series [2] and in series [3] was “binds” in each case.

B3: gapped duplex, 32-nt gap (mixed)
DNA 1: B2 DNA 1
DNA 2: B2 DNA 3
DNA 3: ACGCGATATCTTAGGGTTAGGGTTAACATCAAGTCACG
On to B3, for which the binding result in series [4] and in series [5] was “binds” throughout.
